B1: FliP (natural protein)
chain: QLPGLISQPLAGGGQSWSLSVQTLVFITSLTFLPAILLMMTSFTRIIIVFGLLRNALGTPSAPPNQVLLGLALFLTFFIMSPVIDKIYVDAYQPFSEQKISMQEALDKGAQPLRAFMLRQTREADLALFARLANSGPLQGPEAVPMRILLPAYVTSELKTAFQIGFTIFIPFLIIDLVIASVLMALGMMMVPPATIALPFKLMLFVLVDGWQLLMGSLAQSFYS
notes: FliP of Salmonella enterica serovar Typhimurium, mature protein after cleavage of the signal peptide (residues 1-21; cleavage between Ala-21 and Gln-22); residue numbers count on the precursor; Five FliP subunits stand in the FliP5-FliQ4-FliR1 complex; also called mature FliP; FliP^A (Mol-A); source: Salmonella SJW1368 carrying pMKM10001 (pTrcCES3/ FliP + FliQ + FliR-His); purified as FliPQR-His …

What was measured:
Assay in all cases: cryo-EM structure; FliPQR-His complex purified from Salmonella membranes and reconstituted in a peptidisc, detergent-free (20 mM Tris-HCl pH 8.0, 150 mM NaCl), fluorinated Fos-Choline 0, 1.0 or 2.0 mM added before grid preparation; single-particle analysis, C1 symmetry, 3.0 Å; closed form
FliR-His = target: T1, FliR-His (Salmonella enterica serovar Typhimurium, UniProt P54702 1-264); conditions: both partners purified
T1 construct: FliR of Salmonella enterica serovar Typhimurium; One FliR subunit stands in the FliP5-FliQ4-FliR1 complex; source: Salmonella SJW1368 carrying pMKM10001 (pTrcCES3/ FliP + FliQ + FliR-His); purified as FliPQR-His complex (LMNG, Ni-NTA, SEC), reconstituted in peptidisc; not shown: His tag (10 residues), C-terminal, kept
T1 sequence: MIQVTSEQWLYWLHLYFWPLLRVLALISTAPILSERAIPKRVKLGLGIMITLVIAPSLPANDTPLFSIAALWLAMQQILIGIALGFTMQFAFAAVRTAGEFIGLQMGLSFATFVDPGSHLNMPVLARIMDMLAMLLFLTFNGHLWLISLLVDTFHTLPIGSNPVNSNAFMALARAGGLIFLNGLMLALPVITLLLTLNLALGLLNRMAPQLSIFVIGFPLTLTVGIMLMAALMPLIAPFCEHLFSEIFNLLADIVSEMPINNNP

[1] = target: the molecule itself
FliP = target: B1; conditions: both partners purified

B1
binding result (FliR-His): binds | stoichiometry N [1]: 5 subunits

B2: FliQ (natural protein)
chain: MTPESVMMMGTEAMKVALALAAPLLLVALITGLIISILQAATQINEMTLSFIPKIVAVFIAIIVAGPWMLNLLLDYVRTLFSNLPYIIG
notes: FliQ of Salmonella enterica serovar Typhimurium; Four FliQ subunits stand in the FliP5-FliQ4-FliR1 complex; source: Salmonella SJW1368 carrying pMKM10001 (pTrcCES3/ FliP + FliQ + FliR-His); purified as FliPQR-His complex (LMNG, Ni-NTA, SEC), reconstituted in peptidisc
binding result (FliP): binds | binding result (FliR-His): binds
